Reference: patent US20130101617A1

What was measured:
[1] = target: CD4 on CF2.CD4.CCR5 cells (Homo sapiens (Human)) (UniProt P01730)
[2] = target: CCR5 on CF2.CD4.CCR5 cells (Homo sapiens (Human)) (UniProt P51681)

JR-FL SOS gp120/gp41 trimer
infection of CF2.CD4.CCR5 target cells [1]: 100 % of mock
infection of CF2.CD4.CCR5 target cells [2]: 100 % of mock
